In US20250129168A1:

Key:
[1] = target: recombinant human-Dectin-1 mouse Fc fusion (human) (UniProt Q9BXN2); assay: Octet BLI, response at X
[2] = target: recombinant human-Dectin-1 mouse Fc fusion (human) (UniProt Q9BXN2); assay: Octet BLI, delta between the two X values

| Binder | X = 340 [1] | X = 470 [1] | delta [2] | X = 290 [1] | X = 350 [1] |
| --- | --- | --- | --- | --- | --- |
| 2M24A.1.1 hFab (Fab, V domains shown) VH: QVQLVQSGAEVKKPGASVKVSCKSSGYTFTAYYIHWVRQAPGQGLEWMGWINPNSGDTNYAQKFQGRITMTRDTSISTAYLELSRLRSDDTAVFYCARNSGSYSFGYWGQGTLVTVSS VL: DIQMTQSPSSVSASVGDRVTITCRASQGISSWLAWYQQKPGKAPKLLIFGASSLQSGVPSRFSGSGSGTDFTLTVSSLQPEDFATYYCQQAASFPFTFGPGTKVDIE | 0.305 | 0.006 | 98% | – | – |
| 2M24A.1.18 (Fab, V domains shown) VH: QVQLVQSGAEVKKPGASVKVSCKSSGYTFTDYYIHWVRQAPGQGLEWMGWINPNSGDTNYAQKFQGRITMTRDTSISTAYLELSRLRSDDTAVFYCARNSGAYSFGYWGQGTLVTVSS VL: DIQMTQSPSSVSASVGDRVTITCRASQGISSWLAWYQQKPGKAPKLLIFGASSLQSGVPSRFSGSGSGTDFTLTVSSLQPEDFATYYCQQAYSFPFTFGPGTKVDIE | – | – | 9% | 0.138 | 0.124 |
| 2M24A.1.20 (Fab, V domains shown) VH: QVQLVQSGAEVKKPGASVKVSCKSSGYTFTDYYIHWVRQAPGQGLEWMGWINPNSGDTNYAQKFQGRITMTRDTSISTAYLELSRLRSDDTAVFYCARNSGSYSAGYWGQGTLVTVSS VL: DIQMTQSPSSVSASVGDRVTITCRASQGISSWLAWYQQKPGKAPKLLIFGASSLQSGVPSRFSGSGSGTDFTLTVSSLQPEDFATYYCQQAYSFPFTFGPGTKVDIE | – | – | 78% | 0.0981 | 0.0215 |
| 2M24A.1.12 hFab (Fab, V domains shown) VH: QVQLVQSGAEVKKPGASVKVSCKSSGYTFTDYYIHWVRQAPGQGLEWMGWINPNSGATNYAQKFQGRITMTRDTSISTAYLELSRLRSDDTAVFYCARNSGSYSFGYWGQGTLVTVSS VL: DIQMTQSPSSVSASVGDRVTITCRASQGISSWLAWYQQKPGKAPKLLIFGASSLQSGVPSRFSGSGSGTDFTLTVSSLQPEDFATYYCQQAYSFPFTFGPGTKVDIE | 0.49 | 0.399 | 19% | – | – |
| 2M24A.1.8 hFab (Fab, V domains shown) VH: QVQLVQSGAEVKKPGASVKVSCKSSGYTFTDYYIHWVRQAPGQGLEWMGWINPNSGDTNYAQKFQGRITMTRDTSISTAYLELSRLRSDDTAVFYCARASGSYSFGYWGQGTLVTVSS VL: DIQMTQSPSSVSASVGDRVTITCRASQGISSWLAWYQQKPGKAPKLLIFGASSLQSGVPSRFSGSGSGTDFTLTVSSLQPEDFATYYCQQAFSFPFTFGPGTKVDIE | 0.042 | 0 | 100% | – | – |
| 2M24A.1.15 (Fab, V domains shown) VH: QVQLVQSGAEVKKPGASVKVSCKSSGYTFTDYYIHWVRQAPGQGLEWMGWINPNSGDTNYAQKFQGRITMTRDTSISTAYLELSRLRSDDTAVFYCAANSGSYSFGYWGQGTLVTVSS VL: DIQMTQSPSSVSASVGDRVTITCRASQGISSWLAWYQQKPGKAPKLLIFGASSLQSGVPSRFSGSGSGTDFTLTVSSLQPEDFATYYCQQAYSFPFTFGPGTKVDIE | – | – | 62% | 0.082 | 0.0314 |
| 2M24A.1.4 hFab (Fab, V domains shown) VH: QVQLVQSGAEVKKPGASVKVSCKSSGYTFTDYYIHWVRQAPGQGLEWMGWINPNSGDTNYAQKFQGRITMTRDTSISTAYLELSRLRSDDTAVFYCARNSGSASFGYWGQGTLVTVSS VL: DIQMTQSPSSVSASVGDRVTITCRASQGISSWLAWYQQKPGKAPKLLIFGASSLQSGVPSRFSGSGSGTDFTLTVSSLQPEDFATYYCQQAASFPFTFGPGTKVDIE | 0 | 0 | – | – | – |
| 2M24A.1.19 (Fab, V domains shown) VH: QVQLVQSGAEVKKPGASVKVSCKSSGYTFTDYYIHWVRQAPGQGLEWMGWINPNSGDTNYAQKFQGRITMTRDTSISTAYLELSRLRSDDTAVFYCARNSGSYAFGYWGQGTLVTVSS VL: DIQMTQSPSSVSASVGDRVTITCRASQGISSWLAWYQQKPGKAPKLLIFGASSLQSGVPSRFSGSGSGTDFTLTVSSLQPEDFATYYCQQAYSFPFTFGPGTKVDIE | – | – | 22% | 0.126 | 0.0983 |
| 2M24A.1.16 (Fab, V domains shown) VH: QVQLVQSGAEVKKPGASVKVSCKSSGYTFTDYYIHWVRQAPGQGLEWMGWINPNSGDTNYAQKFQGRITMTRDTSISTAYLELSRLRSDDTAVFYCARNAGSYSFGYWGQGTLVTVSS VL: DIQMTQSPSSVSASVGDRVTITCRASQGISSWLAWYQQKPGKAPKLLIFGASSLQSGVPSRFSGSGSGTDFTLTVSSLQPEDFATYYCQQAYSFPFTFGPGTKVDIE | – | – | 5% | 0.12 | 0.114 |
| 2M24A.1.14 hFab (Fab, V domains shown) VH: QVQLVQSGAEVKKPGASVKVSCKSSGYTFTDYYIHWVRQAPGQGLEWMGWINPNSGDTNYAQKFQGRITMTRDTSISTAYLELSRLRSDDTAVFYCARNSGSASFGYWGQGTLVTVSS VL: DIQMTQSPSSVSASVGDRVTITCRASQGISSWLAWYQQKPGKAPKLLIFGASSLQSGVPSRFSGSGSGTDFTLTVSSLQPEDFATYYCQQAYSFPFTFGPGTKVDIE | 0.106 | 0 | 100% | – | – |
| 2M24A.1.13 hFab (Fab, V domains shown) VH: QVQLVQSGAEVKKPGASVKVSCKSSGYTFTDYYIHWVRQAPGQGLEWMGWINPNSGDTNYAQKFQGRITMTRDTSISTAYLELSRLRSDDTAVFYCARASGSYSFGYWGQGTLVTVSS VL: DIQMTQSPSSVSASVGDRVTITCRASQGISSWLAWYQQKPGKAPKLLIFGASSLQSGVPSRFSGSGSGTDFTLTVSSLQPEDFATYYCQQAYSFPFTFGPGTKVDIE | 0.028 | 0 | 100% | – | – |
| 2M24A.1.3 hFab (Fab, V domains shown) VH: QVQLVQSGAEVKKPGASVKVSCKSSGYTFTDYYIHWVRQAPGQGLEWMGWINPNSGDTNYAQKFQGRITMTRDTSISTAYLELSRLRSDDTAVFYCARASGSYSFGYWGQGTLVTVSS VL: DIQMTQSPSSVSASVGDRVTITCRASQGISSWLAWYQQKPGKAPKLLIFGASSLQSGVPSRFSGSGSGTDFTLTVSSLQPEDFATYYCQQAASFPFTFGPGTKVDIE | 0 | 0 | – | – | – |
| 2M24A.1.9 hFab (Fab, V domains shown) VH: QVQLVQSGAEVKKPGASVKVSCKSSGYTFTDYYIHWVRQAPGQGLEWMGWINPNSGDTNYAQKFQGRITMTRDTSISTAYLELSRLRSDDTAVFYCARNSGSASFGYWGQGTLVTVSS VL: DIQMTQSPSSVSASVGDRVTITCRASQGISSWLAWYQQKPGKAPKLLIFGASSLQSGVPSRFSGSGSGTDFTLTVSSLQPEDFATYYCQQAFSFPFTFGPGTKVDIE | 0.018 | 0 | 100% | – | – |
| 2M24A.1.7 hFab (Fab, V domains shown) VH: QVQLVQSGAEVKKPGASVKVSCKSSGYTFTDYYIHWVRQAPGQGLEWMGWINPNSGATNYAQKFQGRITMTRDTSISTAYLELSRLRSDDTAVFYCARNSGSYSFGYWGQGTLVTVSS VL: DIQMTQSPSSVSASVGDRVTITCRASQGISSWLAWYQQKPGKAPKLLIFGASSLQSGVPSRFSGSGSGTDFTLTVSSLQPEDFATYYCQQAFSFPFTFGPGTKVDIE | 0.51 | 0.398 | 22% | – | – |
| 2M24A.1.6 hFab (Fab, V domains shown) VH: QVQLVQSGAEVKKPGASVKVSCKSSGYTFTAYYIHWVRQAPGQGLEWMGWINPNSGDTNYAQKFQGRITMTRDTSISTAYLELSRLRSDDTAVFYCARNSGSYSFGYWGQGTLVTVSS VL: DIQMTQSPSSVSASVGDRVTITCRASQGISSWLAWYQQKPGKAPKLLIFGASSLQSGVPSRFSGSGSGTDFTLTVSSLQPEDFATYYCQQAFSFPFTFGPGTKVDIE | 0.493 | 0.39 | 21% | – | – |
| 2M24A.1.2 hFab (Fab, V domains shown) VH: QVQLVQSGAEVKKPGASVKVSCKSSGYTFTDYYIHWVRQAPGQGLEWMGWINPNSGATNYAQKFQGRITMTRDTSISTAYLELSRLRSDDTAVFYCARNSGSYSFGYWGQGTLVTVSS VL: DIQMTQSPSSVSASVGDRVTITCRASQGISSWLAWYQQKPGKAPKLLIFGASSLQSGVPSRFSGSGSGTDFTLTVSSLQPEDFATYYCQQAASFPFTFGPGTKVDIE | 0.331 | 0.006 | 98% | – | – |
| 2M24A.1.17 (Fab, V domains shown) VH: QVQLVQSGAEVKKPGASVKVSCKSSGYTFTDYYIHWVRQAPGQGLEWMGWINPNSGDTNYAQKFQGRITMTRDTSISTAYLELSRLRSDDTAVFYCARNSASYSFGYWGQGTLVTVSS VL: DIQMTQSPSSVSASVGDRVTITCRASQGISSWLAWYQQKPGKAPKLLIFGASSLQSGVPSRFSGSGSGTDFTLTVSSLQPEDFATYYCQQAYSFPFTFGPGTKVDIE | – | – | 1% | 0.131 | 0.129 |
| 2M24A.1.21 (Fab, V domains shown) VH: QVQLVQSGAEVKKPGASVKVSCKSSGYTFTDYYIHWVRQAPGQGLEWMGWINPNSGDTNYAQKFQGRITMTRDTSISTAYLELSRLRSDDTAVFYCARNSGSYSFAYWGQGTLVTVSS VL: DIQMTQSPSSVSASVGDRVTITCRASQGISSWLAWYQQKPGKAPKLLIFGASSLQSGVPSRFSGSGSGTDFTLTVSSLQPEDFATYYCQQAYSFPFTFGPGTKVDIE | – | – | 8% | 0.125 | 0.114 |
| 2M24A.1.11 hFab (Fab, V domains shown) VH: QVQLVQSGAEVKKPGASVKVSCKSSGYTFTAYYIHWVRQAPGQGLEWMGWINPNSGDTNYAQKFQGRITMTRDTSISTAYLELSRLRSDDTAVFYCARNSGSYSFGYWGQGTLVTVSS VL: DIQMTQSPSSVSASVGDRVTITCRASQGISSWLAWYQQKPGKAPKLLIFGASSLQSGVPSRFSGSGSGTDFTLTVSSLQPEDFATYYCQQAYSFPFTFGPGTKVDIE | 0.499 | 0.418 | 16% | – | – |
| 2M24A.1.22 (Fab, V domains shown) VH: QVQLVQSGAEVKKPGASVKVSCKSSGYTFTDYYIHWVRQAPGQGLEWMGWINPNSGDTNYAQKFQGRITMTRDTSISTAYLELSRLRSDDTAVFYCARNSGSYSFGAWGQGTLVTVSS VL: DIQMTQSPSSVSASVGDRVTITCRASQGISSWLAWYQQKPGKAPKLLIFGASSLQSGVPSRFSGSGSGTDFTLTVSSLQPEDFATYYCQQAYSFPFTFGPGTKVDIE | – | – | 15% | 0.131 | 0.112 |
